Read-outs that look alike come from different tables or passages of the source. Where no end group is shown, it is not given here.
How the values were obtained:
[1] = molecular target: T1, triple Tudor domain (3TD) of SETDB1, wildtype, as used in solution (ITC, NMR, crystals) (UniProt Q15047 190-410); assay: ITC
[2] = molecular target: T1, triple Tudor domain (3TD) of SETDB1, …; assay: NMR
[3] = molecular target: 3TD of SETDB1, Y268A mutant, as used in ITC (UniProt Q15047 190-410, Y268A); assay: ITC
[4] = molecular target: 3TD of SETDB1, W358A mutant, as used in ITC and crystals (UniProt Q15047 190-410, W358A); assay: ITC
[5] = molecular target: 3TD of SETDB1, R384A mutant, as used in ITC (UniProt Q15047 190-410, alanine mutation of R384); assay: ITC
[6] = molecular target: T1, triple Tudor domain (3TD) of SETDB1, …; assay: ITC; remark: listed apart in the source
[7] = molecular target: T2, 3TD of SETDB1, F332A mutant, as used in ITC (UniProt Q15047 190-410, F332A); assay: ITC
[8] = molecular target: T2, 3TD of SETDB1, F332A mutant, as used in …; assay: ITC; remark: listed apart in the source

| Kd [1] [µM] | Kd [2] [µM] | Kd [3] [µM] | Kd [4] [µM] | Kd [5] [µM] | Kd [6] [µM] | Kd [7] [µM] | Kd [8] [µM] | Binder |
| --- | --- | --- | --- | --- | --- | --- | --- | --- |
| > 500 | 930 | – | – | – | – | – | – | KQTARKSTGGK(Ac)APRKQ [monomodified H3K14ac peptide in solution (ITC, NMR; crystal)] |
| – | – | 135 | 55.6 | 9.2 | 23.9 | – | – | KQTARK(Me3)STGGK(Ac)APRKQ [H3K9me3/K14ac peptide in solution (ITC; crystals)] |
| – | – | 19.2 | – | 5.1 | 29.4 | – | – | KQTARK(Me)STGGK(Ac)APRKQ [H3K9me1/K14ac peptide in solution (ITC)] |
| – | – | 8.1 | 174 | 2.6 | 9.3 | ~350 | 353 | KQTARK(Me2)STGGK(Ac)APRKQ [H3K9me2/K14ac peptide in solution (ITC; crystal with W358A), limits not stated] |

— paper PMC5727127 (2017)
